Laboratory results as given in PMC5906006 (PLoS ONE, 2018).
Bridge positions count the residues as written; N and C are the ends. Square brackets hold non-standard residues; d marks the D form. Peptide text beside a SMILES is read from it. * marks the point of attachment. X1 = O=C(O)CN1CCN(CC(=O)O)CCN([C@H](CCC(=O)*)C(=O)O)CC1; dPhe(4-NHCONH2) = NC(=O)Nc1ccc(C[C@@H](N)C(=O)O)cc1; Dihydroorotyl(S) = O=C1C[C@@H](C(=O)*)NC(=O)N1; Phe(4-Cl) = N[C@@H](Cc1ccc(Cl)cc1)C(=O)O; Phe(4-NH2) = Nc1ccc(C[C@H](N)C(=O)O)cc1

Columns and labels:
[1] = Biodistribution in HEK-hsst2 tumor-bearing mice; conditions: female, Balb/c nude, mouse, in vivo, iv, total radioactivity
[2] = molecular target: T1, human sst2 receptors (Homo sapiens, UniProt P30874); assay: Saturation binding on HEK-hsst2 cells; conditions: 2 hours at +4 °C
T1 construct: expressed in transfected cells; host or cells: HEK-293 (HEK-hsst2), a gift from Prof; Schulz, University of Jena
T1 sequence (P30874 whole entry): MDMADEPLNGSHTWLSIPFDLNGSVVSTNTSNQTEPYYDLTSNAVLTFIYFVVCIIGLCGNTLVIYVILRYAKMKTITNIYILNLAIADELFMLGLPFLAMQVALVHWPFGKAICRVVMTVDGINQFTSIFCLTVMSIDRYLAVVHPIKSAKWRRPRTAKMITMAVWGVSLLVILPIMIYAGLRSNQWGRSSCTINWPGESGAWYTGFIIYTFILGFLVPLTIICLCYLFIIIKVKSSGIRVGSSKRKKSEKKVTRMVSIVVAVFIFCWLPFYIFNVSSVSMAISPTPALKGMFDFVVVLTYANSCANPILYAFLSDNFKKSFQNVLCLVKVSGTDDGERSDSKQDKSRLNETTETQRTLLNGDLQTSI
Protocol: The saturation binding experiments were performed with radioligand (^64/natCu-NODAGA-JR11 and ^64/natCu-DOTA-TATE) concentrations ranging from 0.5–75 nM and 0.5–90 nM, respectively, for 2 hours at +4 °C as described previously [24]. The Kd and Bmax values were calculated using GraphPad.

With `C[C@@H](O)[C@H](NC(=O)[C@@H]1CSSC[C@H](NC(=O)[C@@H](Cc2ccccc2)NC(=O)CN2CCN(CC(=O)O)CCN(CC(=O)O)CCN(CC(=O)O)CC2)C(=O)N[C@@H](Cc2ccc(O)cc2)C(=O)N[C@H](Cc2c[nH]c3ccccc23)C(=O)N[C@@H](CCCCN)C(=O)N[C@@H]([C@@H](C)O)C(=O)N1)C(=O)O` [^64Cu-DOTA-TATE, [^64Cu-DOTA, Tyr^3, Thr^8]octreotide, metal not drawn, reference compound] as the molecule, how does the tissue uptake at 1 h ([1]; 10 pmol, Adrenal uptake) read?
The tissue uptake at 1 h was 4.7 ± 1.5 %ID/g.

What about the tissue uptake at 24 h ([1]; 10 pmol, Adrenal uptake) of the same molecule?
The tissue uptake at 24 h was 0.7 ± 0.3 %ID/g.

And the tissue uptake at 1 h ([1]; 10 pmol, Blood uptake)?
The tissue uptake at 1 h was 0.7 ± 0.2 %ID/g.

And the tissue uptake at 4 h ([1]; 10 pmol, Blood uptake)?
The tissue uptake at 4 h was 0.6 ± 0.1 %ID/g.

What about the tissue uptake at 24 h ([1]; 10 pmol, Blood uptake) of the same molecule?
Its tissue uptake at 24 h is 0.5 ± 0.05 %ID/g.

And the tissue uptake at 1 h ([1]; 10 pmol, Bone uptake)?
The tissue uptake at 1 h was 1.6 ± 0.5 %ID/g.

And the tissue uptake at 24 h ([1]; 10 pmol, Bone uptake)?
The tissue uptake at 24 h was 0.8 ± 0.1 %ID/g.

And the tissue uptake at 1 h ([1]; 10 pmol, Heart uptake)?
The tissue uptake at 1 h was 1.1 ± 0.1 %ID/g.

What about the tissue uptake at 4 h ([1]; 10 pmol, Heart uptake) of the same molecule?
Its tissue uptake at 4 h is 1.2 ± 0.3 %ID/g.

And the tissue uptake at 24 h ([1]; 10 pmol, Heart uptake)?
Its tissue uptake at 24 h is 1.1 ± 0.2 %ID/g.

What about the tissue uptake at 24 h ([1]; 10 pmol, Intestine uptake) of the same molecule?
The tissue uptake at 24 h was 2 ± 0.3 %ID/g.

What about the tissue uptake at 1 h ([1]; 10 pmol, Kidney uptake) of the same molecule?
The tissue uptake at 1 h was 4.8 ± 0.5 %ID/g.

And the tissue uptake at 4 h ([1]; 10 pmol, Kidney uptake)?
Its tissue uptake at 4 h is 3 ± 0.6 %ID/g.

What about the tissue uptake at 1 h ([1]; 10 pmol, Liver uptake) of the same molecule?
Its tissue uptake at 1 h is 6.1 ± 1.2 %ID/g.

What about the tissue uptake at 4 h ([1]; 10 pmol, Liver uptake) of the same molecule?
The tissue uptake at 4 h was 5.2 ± 1.6 %ID/g.

And the tissue uptake at 24 h ([1]; 10 pmol, Liver uptake)?
Its tissue uptake at 24 h is 4.6 ± 0.6 %ID/g.

What about the tissue uptake at 1 h ([1]; 10 pmol, Lung uptake) of the same molecule?
The tissue uptake at 1 h was 9.8 ± 2.6 %ID/g.

And the tissue uptake at 4 h ([1]; 10 pmol, Lung uptake)?
Its tissue uptake at 4 h is 5.4 ± 1.4 %ID/g.

What about the tissue uptake at 1 h ([1]; 10 pmol, Muscle uptake) of the same molecule?
Its tissue uptake at 1 h is 0.3 ± 0.1 %ID/g.

And the tissue uptake at 4 h ([1]; 10 pmol, Muscle uptake)?
The tissue uptake at 4 h was 0.2 ± 0.03 %ID/g.

And the tissue uptake at 24 h ([1]; 10 pmol, Muscle uptake)?
Its tissue uptake at 24 h is 0.3 ± 0.1 %ID/g.

What about the tissue uptake at 1 h ([1]; 10 pmol, Pancreas uptake) of the same molecule?
The tissue uptake at 1 h was 24.6 ± 2.4 %ID/g.

What about the tissue uptake at 4 h ([1]; 10 pmol, Pancreas uptake) of the same molecule?
Its tissue uptake at 4 h is 4.4 ± 1 %ID/g.

And the tissue uptake at 24 h ([1]; 10 pmol, Pancreas uptake)?
The tissue uptake at 24 h was 0.95 ± 0.1 %ID/g.

What about the tissue uptake at 4 h ([1]; 10 pmol, Spleen uptake) of the same molecule?
The tissue uptake at 4 h was 1.1 ± 0.4 %ID/g.

What about the tissue uptake at 24 h ([1]; 10 pmol, Spleen uptake) of the same molecule?
Its tissue uptake at 24 h is 1.2 ± 0.1 %ID/g.

And the tissue uptake at 1 h ([1]; 10 pmol, Stomach uptake)?
Its tissue uptake at 1 h is 16.1 ± 1.7 %ID/g.

What about the tissue uptake at 4 h ([1]; 10 pmol, Stomach uptake) of the same molecule?
The tissue uptake at 4 h was 10.6 ± 1.6 %ID/g.

What about the tissue uptake at 24 h ([1]; 10 pmol, Stomach uptake) of the same molecule?
The tissue uptake at 24 h was 3.1 ± 0.3 %ID/g.

What about the tissue uptake at 1 h ([1]; 10 pmol, Tumor uptake) of the same molecule?
Its tissue uptake at 1 h is 20.3 ± 2.5 %ID/g.

What about the tissue uptake at 4 h ([1]; 10 pmol, Tumor uptake) of the same molecule?
Its tissue uptake at 4 h is 14.9 ± 1 %ID/g.

Which results are given for `C[C@@H](O)[C@@H]1NC(=O)[C@H](CCCCN)NC(=O)[C@@H](Cc2ccc(NC(N)=O)cc2)NC(=O)[C@H](Cc2ccc(NC(=O)[C@@H]3CC(=O)NC(=O)N3)cc2)NC(=O)[C@H](NC(=O)[C@H](Cc2ccc(Cl)cc2)NC(=O)CC[C@H](C(=O)O)N2CCN(CC(=O)O)CCN(CC(=O)O)CC2)CSSC[C@@H](C(=O)N[C@H](Cc2ccc(O)cc2)C(N)=O)NC1=O` [^64Cu-NODAGA-JR11, metal not drawn] (X1-[Phe(4-Cl)][dC][Phe(4-NH2)](Dihydroorotyl(S))[dPhe(4-NHCONH2)]KTC[dY]-NH2; disulfide 2-7)?
tissue uptake at 1 h ([1]; 10 pmol, Adrenal uptake): 4.8 ± 0.8 %ID/g; tissue uptake at 4 h ([1]; 10 pmol, Adrenal uptake): 3.5 ± 0.9 %ID/g; tissue uptake at 24 h ([1]; 10 pmol, Adrenal uptake): 1.5 ± 0.6 %ID/g; tissue uptake at 1 h ([1]; 10 pmol, Blood uptake): 0.6 ± 0.2 %ID/g; tissue uptake at 4 h ([1]; 10 pmol, Blood uptake): 0.1 %ID/g; tissue uptake at 24 h ([1]; 10 pmol, Blood uptake): 0.1 %ID/g; tissue uptake at 1 h ([1]; 10 pmol, Bone uptake): 0.7 ± 0.2 %ID/g; tissue uptake at 4 h ([1]; 10 pmol, Bone uptake): 0.8 ± 0.2 %ID/g; tissue uptake at 24 h ([1]; 10 pmol, Bone uptake): 0.4 ± 0.2 %ID/g; tissue uptake at 1 h ([1]; 10 pmol, Heart uptake): 0.5 ± 0.1 %ID/g; tissue uptake at 4 h ([1]; 10 pmol, Heart uptake): 0.3 ± 0.1 %ID/g; tissue uptake at 24 h ([1]; 10 pmol, Heart uptake): 0.2 ± 0.1 %ID/g; tissue uptake at 1 h ([1]; 10 pmol, Intestine uptake): 0.9 ± 0.4 %ID/g; tissue uptake at 4 h ([1]; 10 pmol, Intestine uptake): 0.7 ± 0.1 %ID/g; tissue uptake at 24 h ([1]; 10 pmol, Intestine uptake): 0.4 %ID/g; tissue uptake at 1 h ([1]; 10 pmol, Kidney uptake): 10.3 ± 0.7 %ID/g; tissue uptake at 4 h ([1]; 10 pmol, Kidney uptake): 6.9 ± 0.9 %ID/g; tissue uptake at 24 h ([1]; 10 pmol, Kidney uptake): 2.2 ± 0.6 %ID/g; tissue uptake at 1 h ([1]; 10 pmol, Liver uptake): 1.7 ± 0.2 %ID/g; tissue uptake at 4 h ([1]; 10 pmol, Liver uptake): 0.7 ± 0.3 %ID/g; tissue uptake at 24 h ([1]; 10 pmol, Liver uptake): 0.3 ± 0.1 %ID/g; tissue uptake at 1 h ([1]; 10 pmol, Lung uptake): 3 ± 1 %ID/g; tissue uptake at 4 h ([1]; 10 pmol, Lung uptake): 0.8 ± 0.2 %ID/g; tissue uptake at 24 h ([1]; 10 pmol, Lung uptake): 0.5 ± 0.1 %ID/g; tissue uptake at 1 h ([1]; 10 pmol, Muscle uptake): 0.4 %ID/g; tissue uptake at 4 h ([1]; 10 pmol, Muscle uptake): 0.1 ± 0.1 %ID/g; tissue uptake at 24 h ([1]; 10 pmol, Muscle uptake): 0.04 %ID/g; tissue uptake at 1 h ([1]; 10 pmol, Pancreas uptake): 5.6 ± 0.6 %ID/g; tissue uptake at 4 h ([1]; 10 pmol, Pancreas uptake): 0.4 ± 0.1 %ID/g; tissue uptake at 24 h ([1]; 10 pmol, Pancreas uptake): 0.2 %ID/g; tissue uptake at 1 h ([1]; 10 pmol, Spleen uptake): 0.9 ± 0.2 %ID/g; tissue uptake at 4 h ([1]; 10 pmol, Spleen uptake): 1.2 ± 0.2 %ID/g; tissue uptake at 24 h ([1]; 10 pmol, Spleen uptake): 0.9 ± 0.1 %ID/g; tissue uptake at 1 h ([1]; 10 pmol, Stomach uptake): 4.9 ± 1.6 %ID/g; tissue uptake at 4 h ([1]; 10 pmol, Stomach uptake): 0.9 ± 0.2 %ID/g; tissue uptake at 24 h ([1]; 10 pmol, Stomach uptake): 0.4 %ID/g; tissue uptake at 1 h ([1]; 10 pmol, Tumor uptake): 20.6 ± 3.7 %ID/g; tissue uptake at 4 h ([1]; 10 pmol, Tumor uptake): 19 ± 3.1 %ID/g; tissue uptake at 24 h ([1]; 10 pmol, Tumor uptake): 7.7 ± 2.5 %ID/g; tissue uptake at 1 h ([1]; 200 pmol, Adrenal uptake): 2.1 ± 1.2 %ID/g; tissue uptake at 1 h ([1]; 200 pmol, Blood uptake): 0.5 ± 0.1 %ID/g; tissue uptake at 1 h ([1]; 200 pmol, Bone uptake): 0.5 ± 0.3 %ID/g; tissue uptake at 1 h ([1]; 200 pmol, Heart uptake): 0.3 ± 1 %ID/g; tissue uptake at 1 h ([1]; 200 pmol, Intestine uptake): 0.5 ± 0.1 %ID/g; tissue uptake at 1 h ([1]; 200 pmol, Kidney uptake): 10.6 ± 1.6 %ID/g; tissue uptake at 1 h ([1]; 200 pmol, Liver uptake): 1.6 ± 0.3 %ID/g; tissue uptake at 1 h ([1]; 200 pmol, Lung uptake): 0.4 ± 0.2 %ID/g; tissue uptake at 1 h ([1]; 200 pmol, Muscle uptake): 0.2 %ID/g; tissue uptake at 1 h ([1]; 200 pmol, Pancreas uptake): 1.7 ± 0.3 %ID/g; tissue uptake at 1 h ([1]; 200 pmol, Spleen uptake): 0.7 ± 0.1 %ID/g; tissue uptake at 1 h ([1]; 200 pmol, Stomach uptake): 1.7 ± 0.7 %ID/g; tissue uptake at 1 h ([1]; 200 pmol, Tumor uptake): 16.4 ± 0.7 %ID/g; tissue uptake at 1 h ([1]; 1000 pmol, Adrenal uptake): 1.4 ± 0.6 %ID/g; tissue uptake at 1 h ([1]; 1000 pmol, Blood uptake): 0.4 ± 0.1 %ID/g; tissue uptake at 1 h ([1]; 1000 pmol, Bone uptake): 0.8 ± 0.4 %ID/g; tissue uptake at 1 h ([1]; 1000 pmol, Heart uptake): 0.3 ± 0.1 %ID/g; tissue uptake at 1 h ([1]; 1000 pmol, Intestine uptake): 0.3 ± 0.1 %ID/g; tissue uptake at 1 h ([1]; 1000 pmol, Kidney uptake): 7.9 ± 0.4 %ID/g; tissue uptake at 1 h ([1]; 1000 pmol, Liver uptake): 1 ± 0.2 %ID/g; tissue uptake at 1 h ([1]; 1000 pmol, Lung uptake): 0.3 ± 0.1 %ID/g; tissue uptake at 1 h ([1]; 1000 pmol, Muscle uptake): 0.3 ± 0.2 %ID/g; tissue uptake at 1 h ([1]; 1000 pmol, Pancreas uptake): 0.8 ± 0.2 %ID/g; tissue uptake at 1 h ([1]; 1000 pmol, Spleen uptake): 0.5 ± 0.1 %ID/g; tissue uptake at 1 h ([1]; 1000 pmol, Stomach uptake): 0.9 ± 0.2 %ID/g; tissue uptake at 1 h ([1]; 1000 pmol, Tumor uptake): 9.7 ± 2.4 %ID/g; tissue uptake at 1 h ([1]; 2000 pmol, Adrenal uptake): 1.9 ± 0.7 %ID/g; tissue uptake at 1 h ([1]; 2000 pmol, Blood uptake): 0.3 ± 0.1 %ID/g; tissue uptake at 1 h ([1]; 2000 pmol, Bone uptake): 0.2 %ID/g; tissue uptake at 1 h ([1]; 2000 pmol, Heart uptake): 0.2 ± 0.1 %ID/g; tissue uptake at 1 h ([1]; 2000 pmol, Intestine uptake): 0.4 ± 0.1 %ID/g; tissue uptake at 1 h ([1]; 2000 pmol, Kidney uptake): 8.1 ± 0.7 %ID/g; tissue uptake at 1 h ([1]; 2000 pmol, Liver uptake): 0.8 ± 0.1 %ID/g; tissue uptake at 1 h ([1]; 2000 pmol, Lung uptake): 0.3 %ID/g; tissue uptake at 1 h ([1]; 2000 pmol, Muscle uptake): 0.2 %ID/g; tissue uptake at 1 h ([1]; 2000 pmol, Pancreas uptake): 0.6 ± 0.1 %ID/g; tissue uptake at 1 h ([1]; 2000 pmol, Spleen uptake): 0.6 ± 0.1 %ID/g; tissue uptake at 1 h ([1]; 2000 pmol, Stomach uptake): 0.8 ± 0.1 %ID/g; tissue uptake at 1 h ([1]; 2000 pmol, Tumor uptake): 9.2 ± 0.4 %ID/g; Kd [2]: 5.7 ± 0.95 nM
